According to PMC8054679:

What was measured:
Hsp70 (Homo sapiens) = details: cited from earlier work
SmBiT-CHIP-FLAG = experiment: split reporter
SmBiT-CHIP-FLAG, sequence (Q9UNE7 whole entry): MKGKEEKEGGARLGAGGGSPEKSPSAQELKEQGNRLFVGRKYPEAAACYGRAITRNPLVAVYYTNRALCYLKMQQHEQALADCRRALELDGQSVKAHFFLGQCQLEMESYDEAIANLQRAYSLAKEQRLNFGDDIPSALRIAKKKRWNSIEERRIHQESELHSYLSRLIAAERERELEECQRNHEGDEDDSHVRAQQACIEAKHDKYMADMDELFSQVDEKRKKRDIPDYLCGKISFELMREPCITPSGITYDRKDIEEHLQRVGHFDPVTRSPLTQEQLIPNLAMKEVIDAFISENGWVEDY

CHIP TPR, sequence (Q9UNE7 21-154): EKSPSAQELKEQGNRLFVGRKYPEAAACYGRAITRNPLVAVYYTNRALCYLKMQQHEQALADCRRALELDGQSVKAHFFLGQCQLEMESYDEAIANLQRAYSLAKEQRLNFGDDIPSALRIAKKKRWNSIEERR

## CHIP TPR (from UniProt Q9UNE7)
Hsp70 (Homo sapiens)
  Kd: 600 nM

## R9-LWWPD (peptide; other documents disagree on this pair)
SmBiT-CHIP-FLAG
  IC50: 2600 nM
  percent reduction of luminescence at 10 μM: 40%
